According to patent publication US20180100158A1:

Molecular target: HLA-E expressed on the surface of HeLa cells (human (endogenous on HeLa cells)) (UniProt P13747)
Assay: cell-based or functional assay

UniProt P13747, sequence (P13747 22-358): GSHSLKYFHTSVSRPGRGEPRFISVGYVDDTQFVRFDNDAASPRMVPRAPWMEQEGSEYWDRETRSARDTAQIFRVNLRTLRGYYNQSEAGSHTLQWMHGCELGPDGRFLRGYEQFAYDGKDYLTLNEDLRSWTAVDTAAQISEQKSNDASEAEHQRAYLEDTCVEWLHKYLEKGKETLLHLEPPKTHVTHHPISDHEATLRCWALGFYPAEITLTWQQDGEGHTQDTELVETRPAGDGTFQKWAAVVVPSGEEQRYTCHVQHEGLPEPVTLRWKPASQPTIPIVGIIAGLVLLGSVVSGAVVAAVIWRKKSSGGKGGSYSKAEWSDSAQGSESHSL

Question: With “NKG2A receptor on the surface of NK-92 cells (from UniProt P26715 1-233)” as the substance, how does the percentage of lysis of the target HeLa cells (Calcein release), NKG2A-KO against wild-type NK-92 effector cells (% more target HeLa cells killed) read?
Answer: The percentage of lysis of the target HeLa cells (Calcein release), NKG2A-KO against wild-type NK-92 effector cells (% more target HeLa cells killed) was 10 to 15.
